Measured values as given in PMC12557367, ““Precision on Two Wheels”–Structural Refinement of ^64Cu- and ^68Ga-Labeled Bicyclic Peptides Targeting Nectin‑4 for Improved Tumor Imaging: From Preclinical Development to First-in-Human Application” (Journal of Medicinal Chemistry, 2025).
Numbered stars: 1 amine (or outer) side, 2 acyl side, 3 side chain; on linkers, the order of the positions; unused ones are H or OH. Bridge positions count the residues as written; N and C are the ends. Square brackets hold non-standard residues; d marks the D form. * marks the point of attachment. 6‑TAMRA = CN(C)c1ccc2c(-c3cc(C(=O)*)ccc3C(=O)[O-])c3ccc(N(C)C)cc3[o+]c2c1; (R)‑NODAGA = O=C(O)CN1CCN(CC(=O)O)CCN([C@H](CCC(=O)*)C(=O)O)CC1; TATA = O=C(CC[*:1])N1CN(C(=O)CC[*:2])CN(C(=O)CC[*:3])C1; Mox = methoxinine, COCC[C@H](N[*:1])C(=O)[*:2]; 1Nal = N[C@@H](Cc1cccc2ccccc12)C(=O)O; Hyp = O=C(O)[C@@H]1C[C@@H](O)CN1; hArg = N=C(N)NCCCC[C@H](N)C(=O)O

T1: nectin-4 on intact HT-1376 cells (human (endogenous in HT-1376), UniProt Q96NY8 32-510)
T1 construct: also called cellular nectin-4
T1 sequence (looked up): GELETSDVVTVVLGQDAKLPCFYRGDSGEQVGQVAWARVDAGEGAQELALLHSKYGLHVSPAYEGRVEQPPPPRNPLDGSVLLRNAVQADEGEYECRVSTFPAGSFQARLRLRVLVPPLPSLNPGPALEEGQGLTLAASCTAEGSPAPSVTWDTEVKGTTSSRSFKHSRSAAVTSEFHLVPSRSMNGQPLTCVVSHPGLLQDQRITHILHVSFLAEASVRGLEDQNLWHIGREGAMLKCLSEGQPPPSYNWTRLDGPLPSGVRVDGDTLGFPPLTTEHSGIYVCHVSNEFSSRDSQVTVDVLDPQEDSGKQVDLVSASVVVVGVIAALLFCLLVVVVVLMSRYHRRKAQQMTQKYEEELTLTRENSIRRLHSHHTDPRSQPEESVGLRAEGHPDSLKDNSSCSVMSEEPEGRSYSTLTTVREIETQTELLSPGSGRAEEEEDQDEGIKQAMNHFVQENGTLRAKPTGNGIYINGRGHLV

T2: recombinant human nectin-4 (human, UniProt Q96NY8 32-349)
T2 construct: nectin-4, human, recombinant; also called complete extracellular domain of nectin-4; source: bought: R&D Systems (Catalog number 2659-N4)
T2 sequence (looked up): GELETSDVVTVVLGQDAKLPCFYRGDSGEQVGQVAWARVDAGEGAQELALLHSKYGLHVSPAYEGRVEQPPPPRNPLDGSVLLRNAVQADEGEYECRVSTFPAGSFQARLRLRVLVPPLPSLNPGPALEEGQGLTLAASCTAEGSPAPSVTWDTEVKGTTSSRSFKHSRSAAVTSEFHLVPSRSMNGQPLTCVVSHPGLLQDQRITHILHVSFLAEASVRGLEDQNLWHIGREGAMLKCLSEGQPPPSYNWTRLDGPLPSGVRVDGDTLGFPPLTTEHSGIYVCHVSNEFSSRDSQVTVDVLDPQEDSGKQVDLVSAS


Columns and labels:
[1] = molecular target: T1, nectin-4 on intact HT-1376 cells; experiment: radioligand binding; cellular efflux: release of [64Cu]Cu-4 from intact HT-1376 cells over 4 h at 37 °C after 1 h incubation at 10 nM; two-phase decay; details: one partner purified
[2] = molecular target: T1, nectin-4 on intact HT-1376 cells; experiment: radioligand binding; saturation binding on intact HT-1376 cells, 10 radioligand concentrations (0.156-80 or 0.321-160 nM), 37 °C, 1 h, PBS wash; nonspecific with 1 µM 1d; apparent (covers binding and putative internalisation); details: one partner purified
[3] = molecular target: T3, recombinant N-terminal Ig-like V domain of nectin-4 (human); experiment: fluorescence polarisation; fluorescence anisotropy, direct binding of probe 1a to the N-terminal Ig-like V domain of nectin-4; same procedure as for nectin-4; details: both partners purified
T3 construct: nectin-4, N-terminal Ig-like V domain, recombinant; source: bought: Acro Biosystems (NE4-H82Ea)
T3 sequence (Q96NY8 whole entry): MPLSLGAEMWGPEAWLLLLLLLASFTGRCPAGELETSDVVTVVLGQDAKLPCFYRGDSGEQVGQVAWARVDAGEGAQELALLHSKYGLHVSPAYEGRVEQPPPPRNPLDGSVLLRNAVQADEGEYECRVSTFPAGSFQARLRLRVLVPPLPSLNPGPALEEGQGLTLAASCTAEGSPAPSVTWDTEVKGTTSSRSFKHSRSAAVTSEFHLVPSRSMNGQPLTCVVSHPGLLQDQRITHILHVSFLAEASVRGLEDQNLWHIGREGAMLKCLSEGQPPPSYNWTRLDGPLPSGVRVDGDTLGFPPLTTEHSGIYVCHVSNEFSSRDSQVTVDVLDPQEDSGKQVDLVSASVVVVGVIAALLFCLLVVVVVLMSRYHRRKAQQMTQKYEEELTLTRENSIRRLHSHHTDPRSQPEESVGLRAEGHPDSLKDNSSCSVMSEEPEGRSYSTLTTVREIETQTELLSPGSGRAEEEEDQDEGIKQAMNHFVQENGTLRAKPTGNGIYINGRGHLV

[4] = molecular target: T2, recombinant human nectin-4; experiment: fluorescence polarisation; fluorescence anisotropy, direct binding: 1 nM fluorescent probe, 11 to 13 concentrations of nectin-4 (e.g. 0.06-250 nM), 37 °C, 1200 s, HEPES buffer 20 mM pH 7.4, 0.01% Tween20, NaCl, 1% DMSO; Morrison equation; details: both partners purified

half-life of the fast phase of cellular release [1] [min] | Kd [2] [nM] | Kd [3] [nM] | Kd [4] [nM] | Binder
9.5 | 6.06 |  |  | {(R)‑NODAGA}-CP[1Nal][dD]C[Mox][hArg]DWSTP[Hyp]WC-NH2 (linker 1-5-15 via TATA; also: NODAGA complexed with 64Cu) [[64Cu]Cu-4]
 |  | 1.3 | 0.94 ± 0.09 | {6‑TAMRA}-CP[1Nal][dD]CM[hArg]DWSTP[Hyp]WC-NH2 (linker 1-5-15 via TATA) [1a]
